PMC12814185, “Receptor-Mediated Shuttling of a D‑Amino Acid Peptide Achieves High Nanomolar Cytosolic Concentrations” (Journal of the American Chemical Society, 2025)

Molecular target: recombinant human GST-MDM2 (human) (UniProt Q00987)
Assay: fluorescence polarisation

Sequence of recombinant human GST-MDM2 (human) (Q00987 whole entry): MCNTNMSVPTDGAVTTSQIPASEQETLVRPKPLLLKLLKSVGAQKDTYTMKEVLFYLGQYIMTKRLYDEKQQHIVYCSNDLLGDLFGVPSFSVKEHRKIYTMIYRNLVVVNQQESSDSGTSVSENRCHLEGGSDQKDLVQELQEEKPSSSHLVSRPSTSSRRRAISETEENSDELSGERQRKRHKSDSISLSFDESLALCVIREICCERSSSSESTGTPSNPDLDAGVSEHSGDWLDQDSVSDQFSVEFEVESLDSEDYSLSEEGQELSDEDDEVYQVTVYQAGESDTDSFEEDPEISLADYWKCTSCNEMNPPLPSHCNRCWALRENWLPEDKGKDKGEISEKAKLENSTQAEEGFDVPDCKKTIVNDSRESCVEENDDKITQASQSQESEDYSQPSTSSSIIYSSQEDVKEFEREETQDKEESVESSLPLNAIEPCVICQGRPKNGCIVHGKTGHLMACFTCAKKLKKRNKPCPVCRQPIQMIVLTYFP

- Kd: 57 nM
Substance: Cy5-r9-PMIγ (peptide)
